Among the data in patent publication US20170266254A1 (AILERON THERAPEUTICS, published 2017) are IC50 values, retold here.

Changes are numbered by the printed parent chain. Bridges are numbered along the chain shown (N, C = ends). [ ]: non-standard residue; d: D form. S5 = C=CCCC[C@](C)(N)C(=O)O

In the experiment the target is T1, C-terminally 6x Histidine-tagged Beta-Catenin (aa 134-668, 59 KD) (UniProt P35222 134-668).
T1 construct: range 134-668; Armadillo repeat region
T1 sequence: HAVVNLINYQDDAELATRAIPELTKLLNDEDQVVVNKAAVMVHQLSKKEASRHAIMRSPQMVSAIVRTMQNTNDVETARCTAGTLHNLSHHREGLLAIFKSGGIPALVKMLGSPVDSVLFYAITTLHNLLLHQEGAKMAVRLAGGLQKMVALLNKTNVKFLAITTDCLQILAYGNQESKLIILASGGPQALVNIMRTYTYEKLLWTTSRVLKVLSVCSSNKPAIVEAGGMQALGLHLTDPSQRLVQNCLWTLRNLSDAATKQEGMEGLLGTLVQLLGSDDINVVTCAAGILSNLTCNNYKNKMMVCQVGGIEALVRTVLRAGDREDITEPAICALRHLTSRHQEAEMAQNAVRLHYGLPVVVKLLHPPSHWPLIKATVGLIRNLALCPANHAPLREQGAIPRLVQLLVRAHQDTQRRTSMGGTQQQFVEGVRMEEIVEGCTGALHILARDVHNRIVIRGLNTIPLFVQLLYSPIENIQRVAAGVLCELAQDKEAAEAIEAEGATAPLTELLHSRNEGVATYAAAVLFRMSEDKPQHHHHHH
The experiment is described as follows: competitive fluorescence polarization, FAM-labelled linear probe as competitor, His-tagged beta-catenin 134-668. On the procedure: The following experiments are performed at room temperature unless otherwise noted. First, an assay buffer is prepared composed of 25 mM Tris-Hcl pH 7.5, 200 mM Sodium Chloride, and 5 mM CHAPS. Next, 1M DTT is added to assay buffer to a final concentration of 2 mM. […] Forty μl of this protein stock is added to all but six wells of a 96 well plate (which will serve as the free peptide and Blank). Test competitor peptides are diluted from 1 mM DMSO stocks to 2× working stocks in assay buffer. Further dilutions are made in assay buffer-DMSO as to maintain a constant DMSO concentration in all wells. The dilution is carried out such that the peptides have a working concentration range of 40 μM-0.7 μM (2×). As a benchmark, a linear, non-crosslinked peptide competitor is prepared as above but with a working concentration range of 13-0.7 μM. Fifty μl of the competitor 2× stocks are added to the 40 μl of protein solution previously transferred into the assay 96 well plate. Next, a 10× stock of the fluorescent probe is prepared. The probe is identical to the linear benchmark peptide except for the n-terminal conjugation of a FAM flourophore with Beta-Alanine spacer. A 1 mM DMSO stock of the probe is serially diluted to a final concentration of 25 nM (10×) and 10 μl of this stock is added to all wells except for those that will serve as the blank. The assay plate is stored in the dark and the reaction is allowed to run at room temperature for three hours. The reaction is then read on a Biotek Synergy 2 with the following settings: 100 ms delay, 40 measurements per well, with excitation filters of […], and emission filters of […]. Data is then analyzed in Graphpad Prism.
For orientation: Fluorescence polarisation rises when a labelled molecule tumbles more slowly, as on binding a larger partner.

In general, IC50 refers to the concentration that gives 50% inhibition.

B1: SP31 (peptide)
peptide: Ac-LGANDELISFKDEGEQEEKSSENSSAE[S5]DLA[S5]VKSSLV-NH2
modifications: staple 28-32
SMILES: CC[C@H](C)[C@H](NC(=O)[C@H](CC(C)C)NC(=O)[C@H](CCC(=O)O)NC(=O)[C@H](CC(=O)O)NC(=O)[C@H](CC(N)=O)NC(=O)[C@H](C)NC(=O)CNC(=O)[C@H](CC(C)C)NC(C)=O)C(=O)N[C@@H](CO)C(=O)N[C@@H](Cc1ccccc1)C(=O)N[C@@H](CCCCN)C(=O)N[C@@H](CC(=O)O)C(=O)N[C@@H](CCC(=O)O)C(=O)NCC(=O)N[C@@H](CCC(=O)O)C(=O)N[C@@H](CCC(N)=O)C(=O)N[C@@H](CCC(=O)O)C(=O)N[C@@H](CCC(=O)O)C(=O)N[C@@H](CCCCN)C(=O)N[C@@H](CO)C(=O)N[C@@H](CO)C(=O)N[C@@H](CCC(=O)O)C(=O)N[C@@H](CC(N)=O)C(=O)N[C@@H](CO)C(=O)N[C@@H](CO)C(=O)N[C@@H](C)C(=O)N[C@@H](CCC(=O)O)C(=O)N[C@@]1(C)CCCC=CCCC[C@@](C)(C(=O)N[C@H](C(=O)N[C@@H](CCCCN)C(=O)N[C@@H](CO)C(=O)N[C@@H](CO)C(=O)N[C@@H](CC(C)C)C(=O)N[C@H](C(N)=O)C(C)C)C(C)C)NC(=O)[C@H](C)NC(=O)[C@H](CC(C)C)NC(=O)[C@H](CC(=O)O)NC1=O
With B1, the 50% inhibitory concentration (IC50) is 248 nM.

B2: SP49 (peptide)
peptide: Ac-LGANDELISF[S5]DEG[S5]QQQKSSENSSA[S5]RDL[S5]NVKSSLV-NH2
modifications: staple 11-15, 27-31
SMILES: CC[C@H](C)[C@H](NC(=O)[C@H](CC(C)C)NC(=O)[C@H](CCC(=O)O)NC(=O)[C@H](CC(=O)O)NC(=O)[C@H](CC(N)=O)NC(=O)[C@H](C)NC(=O)CNC(=O)[C@H](CC(C)C)NC(C)=O)C(=O)N[C@@H](CO)C(=O)N[C@@H](Cc1ccccc1)C(=O)N[C@@]1(C)CCCC=CCCC[C@@](C)(C(=O)N[C@@H](CCC(N)=O)C(=O)N[C@@H](CCC(N)=O)C(=O)N[C@@H](CCC(N)=O)C(=O)N[C@@H](CCCCN)C(=O)N[C@@H](CO)C(=O)N[C@@H](CO)C(=O)N[C@@H](CCC(=O)O)C(=O)N[C@@H](CC(N)=O)C(=O)N[C@@H](CO)C(=O)N[C@@H](CO)C(=O)N[C@@H](C)C(=O)N[C@@]2(C)CCCC=CCCC[C@@](C)(C(=O)N[C@@H](CC(N)=O)C(=O)N[C@H](C(=O)N[C@@H](CCCCN)C(=O)N[C@@H](CO)C(=O)N[C@@H](CO)C(=O)N[C@@H](CC(C)C)C(=O)N[C@H](C(N)=O)C(C)C)C(C)C)NC(=O)[C@H](CC(C)C)NC(=O)[C@H](CC(=O)O)NC(=O)[C@H](CCCNC(=N)N)NC2=O)NC(=O)CNC(=O)[C@H](CCC(=O)O)NC(=O)[C@H](CC(=O)O)NC1=O
Regarding B2, the IC50 stood at 1650 nM.

B3: SP47 (peptide)
peptide: Ac-LGANDELISF[S5]DEG[S5]QEEKSSENSSA[S5]RDL[S5]NVKSSLV-NH2
modifications: staple 11-15, 27-31
SMILES: CC[C@H](C)[C@H](NC(=O)[C@H](CC(C)C)NC(=O)[C@H](CCC(=O)O)NC(=O)[C@H](CC(=O)O)NC(=O)[C@H](CC(N)=O)NC(=O)[C@H](C)NC(=O)CNC(=O)[C@H](CC(C)C)NC(C)=O)C(=O)N[C@@H](CO)C(=O)N[C@@H](Cc1ccccc1)C(=O)N[C@@]1(C)CCCC=CCCC[C@@](C)(C(=O)N[C@@H](CCC(N)=O)C(=O)N[C@@H](CCC(=O)O)C(=O)N[C@@H](CCC(=O)O)C(=O)N[C@@H](CCCCN)C(=O)N[C@@H](CO)C(=O)N[C@@H](CO)C(=O)N[C@@H](CCC(=O)O)C(=O)N[C@@H](CC(N)=O)C(=O)N[C@@H](CO)C(=O)N[C@@H](CO)C(=O)N[C@@H](C)C(=O)N[C@@]2(C)CCCC=CCCC[C@@](C)(C(=O)N[C@@H](CC(N)=O)C(=O)N[C@H](C(=O)N[C@@H](CCCCN)C(=O)N[C@@H](CO)C(=O)N[C@@H](CO)C(=O)N[C@@H](CC(C)C)C(=O)N[C@H](C(N)=O)C(C)C)C(C)C)NC(=O)[C@H](CC(C)C)NC(=O)[C@H](CC(=O)O)NC(=O)[C@H](CCCNC(=N)N)NC2=O)NC(=O)CNC(=O)[C@H](CCC(=O)O)NC(=O)[C@H](CC(=O)O)NC1=O
Turning to B3, the IC50 stood at 176 nM.

B4: SP48 (peptide)
peptide: Ac-LGANDELISF[S5]DQG[S5]QEQKSSENSSA[S5]RDL[S5]NVKSSLV-NH2
modifications: staple 11-15, 27-31
SMILES: CC[C@H](C)[C@H](NC(=O)[C@H](CC(C)C)NC(=O)[C@H](CCC(=O)O)NC(=O)[C@H](CC(=O)O)NC(=O)[C@H](CC(N)=O)NC(=O)[C@H](C)NC(=O)CNC(=O)[C@H](CC(C)C)NC(C)=O)C(=O)N[C@@H](CO)C(=O)N[C@@H](Cc1ccccc1)C(=O)N[C@@]1(C)CCCC=CCCC[C@@](C)(C(=O)N[C@@H](CCC(N)=O)C(=O)N[C@@H](CCC(=O)O)C(=O)N[C@@H](CCC(N)=O)C(=O)N[C@@H](CCCCN)C(=O)N[C@@H](CO)C(=O)N[C@@H](CO)C(=O)N[C@@H](CCC(=O)O)C(=O)N[C@@H](CC(N)=O)C(=O)N[C@@H](CO)C(=O)N[C@@H](CO)C(=O)N[C@@H](C)C(=O)N[C@@]2(C)CCCC=CCCC[C@@](C)(C(=O)N[C@@H](CC(N)=O)C(=O)N[C@H](C(=O)N[C@@H](CCCCN)C(=O)N[C@@H](CO)C(=O)N[C@@H](CO)C(=O)N[C@@H](CC(C)C)C(=O)N[C@H](C(N)=O)C(C)C)C(C)C)NC(=O)[C@H](CC(C)C)NC(=O)[C@H](CC(=O)O)NC(=O)[C@H](CCCNC(=N)N)NC2=O)NC(=O)CNC(=O)[C@H](CCC(N)=O)NC(=O)[C@H](CC(=O)O)NC1=O
As to B4, the IC50 was 461 nM.

B5: SP58 (peptide)
peptide: Ac-LGANDELLSF[S5]DEG[S5]QQEKSSENSSA[S5]RDL[S5]NVKSSLV-NH2
modifications: staple 11-15, 27-31
SMILES: CC(=O)N[C@@H](CC(C)C)C(=O)NCC(=O)N[C@@H](C)C(=O)N[C@@H](CC(N)=O)C(=O)N[C@@H](CC(=O)O)C(=O)N[C@@H](CCC(=O)O)C(=O)N[C@@H](CC(C)C)C(=O)N[C@@H](CC(C)C)C(=O)N[C@@H](CO)C(=O)N[C@@H](Cc1ccccc1)C(=O)N[C@@]1(C)CCCC=CCCC[C@@](C)(C(=O)N[C@@H](CCC(N)=O)C(=O)N[C@@H](CCC(N)=O)C(=O)N[C@@H](CCC(=O)O)C(=O)N[C@@H](CCCCN)C(=O)N[C@@H](CO)C(=O)N[C@@H](CO)C(=O)N[C@@H](CCC(=O)O)C(=O)N[C@@H](CC(N)=O)C(=O)N[C@@H](CO)C(=O)N[C@@H](CO)C(=O)N[C@@H](C)C(=O)N[C@@]2(C)CCCC=CCCC[C@@](C)(C(=O)N[C@@H](CC(N)=O)C(=O)N[C@H](C(=O)N[C@@H](CCCCN)C(=O)N[C@@H](CO)C(=O)N[C@@H](CO)C(=O)N[C@@H](CC(C)C)C(=O)N[C@H](C(N)=O)C(C)C)C(C)C)NC(=O)[C@H](CC(C)C)NC(=O)[C@H](CC(=O)O)NC(=O)[C@H](CCCNC(=N)N)NC2=O)NC(=O)CNC(=O)[C@H](CCC(=O)O)NC(=O)[C@H](CC(=O)O)NC1=O
B5: the IC50 came out at 324 nM.

B6: SP38 (peptide)
peptide: LGANDELISFADEGAQEEKSSNNSSAEADLAAVKSSLV
modifications: not fully specified; N-terminal acetyl; C-terminal amide; $ = (S)-alpha-(2'-pentenyl)alanine at positions 11 and 15 (first crosslink) and 28 and 32 (second crosslink), each pair joined by an all-carbon crosslinker with one double bond
As for B6, the IC50 came out at 83 nM.

B7: SP59 (peptide)
peptide: B6 peptide with E27A, A28R
modifications: not fully specified; N-terminal acetyl; C-terminal amide; $ = (S)-alpha-(2'-pentenyl)alanine at positions 11 and 15 (first crosslink) and 27 and 31 (second crosslink), each pair joined by an all-carbon crosslinker with one double bond
Take B7: the IC50 amounted to 300 nM.

B8: SP57 (peptide)
peptide: LGANDELISFANQGAQEEKSSNNSSAARNLADVKSSLV
modifications: not fully specified; N-terminal acetyl; C-terminal amide; $ = (S)-alpha-(2'-pentenyl)alanine at positions 11 and 15 (first crosslink) and 27 and 31 (second crosslink), each pair joined by an all-carbon crosslinker with one double bond
Consider B8, for which the 50% inhibitory concentration (IC50) stood at 407 nM.
